The results in this text go back to patent US20250270287A1 (KEROS THERAPEUTICS, published 2025).

Test [1] addresses T1, GDF-11 (UniProt O95390 299-407).
T1 sequence (looked up): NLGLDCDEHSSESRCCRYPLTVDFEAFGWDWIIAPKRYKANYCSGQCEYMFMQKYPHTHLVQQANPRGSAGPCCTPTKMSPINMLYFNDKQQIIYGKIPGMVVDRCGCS
The test is described as follows: cell-based or functional assay.

Test [2] addresses T2, Activin B (UniProt P09529 293-407).
T2 sequence (looked up): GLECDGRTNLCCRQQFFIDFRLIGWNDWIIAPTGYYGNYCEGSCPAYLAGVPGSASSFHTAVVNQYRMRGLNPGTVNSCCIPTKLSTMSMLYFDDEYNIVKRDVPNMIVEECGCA
The test is described as follows: cell-based or functional assay.

Test [3] addresses T3, Activin A (UniProt P08476 311-426).
T3 sequence (looked up): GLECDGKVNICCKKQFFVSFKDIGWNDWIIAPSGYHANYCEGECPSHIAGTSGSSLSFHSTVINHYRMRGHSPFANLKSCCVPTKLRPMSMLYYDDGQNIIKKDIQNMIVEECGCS
The test is described as follows: cell-based or functional assay.

For test [4], the target named is T4, BMP-9 (UniProt Q9UK05 320-429).
T4 sequence (looked up): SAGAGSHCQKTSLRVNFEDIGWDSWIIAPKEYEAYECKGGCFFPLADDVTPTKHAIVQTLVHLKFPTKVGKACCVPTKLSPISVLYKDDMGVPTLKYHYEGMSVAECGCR
The test is described as follows: cell-based or functional assay.

In test [5] the target is T5, growth differentiation factor 8 (GDF-8) (UniProt O14793 267-375).
T5 construct: also called myostatin
T5 sequence (looked up): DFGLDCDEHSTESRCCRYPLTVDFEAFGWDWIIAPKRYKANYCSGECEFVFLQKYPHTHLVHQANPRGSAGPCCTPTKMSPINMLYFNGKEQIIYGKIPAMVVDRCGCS
The test is described as follows: SPR (Biacore 8K), Fc protein captured on anti-human IgG, ligand injected. The method, then: (§1) The Cytiva Biacore 8k was used to measure the kinetics of the interactions between the ActRII- and chimera-Fc proteins and Activin A/Activin B/growth differentiation factor 8 (GDF-8)/GDF-11/BMP-9/BMP-10. Series S CM4 Sensor Chips were immobilized with anti-human capture antibody using the reagents and protocol in the Biacore Human Antibody Capture Kit (GE Life Sciences). Briefly, anti-human IgG was diluted to 25 μg/mL in immobilization buffer. The carboxylated surface of the sensor was activated by injecting a mixture of EDC and NHS. The anti-human IgG was injected into the activated sensor chip flow cells at 10 μL/min for a total of 7 minutes until the chip reached an immobilization level of 3000 resonance units (RU). Ethanolamine was injected to deactivate the sensor surfaces. The chip has 8 flow cells to be used for binding analysis, each with an in-line reference surface to subtract instrument noise and non-specific binding to the sensor chip. The ActRII- and chimera-Fc proteins were captured in their own flow cell to allow for a maximum analyte binding response of 20-30 RU. This was done by injecting 10-20 μL of the ActRII- and chimera-Fc proteins into the flow cells at a concentration of 2 μg/mL until 60-90 RU was captured. Ligand at a single concentration was injected at […] for 60 seconds and then allowed to dissociate under buffer flow for no less than 5 minutes. After the cycle completed, captured protein was stripped from the chip with an injection of 3 M magnesium chloride, the regeneration buffer provided with the Biacore Human Antibody Capture Kit. Each ligand was injected in a concentration series, including a buffer only 0 nM concentration to serve as a double reference for subtracting out instrument noise. The data were analyzed using the Biacore Insight Evaluation Software.
On the technique in general: Surface plasmon resonance follows binding to a sensor surface in real time, without labels.

Test [6] concerns the target T1, GDF-11. The test is described as above. The method, then:
as §1

The target of test [7] is T2, Activin B. The test is described as above. The method, then: as §1
In test [8] the target is T3, Activin A. The test is described as above. The method, then: as §1
Another test addresses T6, BMP-10 (UniProt O95393 317-424).
T6 sequence (looked up): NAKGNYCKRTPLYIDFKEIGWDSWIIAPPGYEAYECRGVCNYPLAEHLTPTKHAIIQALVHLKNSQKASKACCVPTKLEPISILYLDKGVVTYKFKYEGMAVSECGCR
Described as above. The method, then: as §1

Test [9] addresses T4, BMP-9. The description is as above. The method, then: as §1

B1: ActRIIB-A3 (SEQ ID NO: 122) chimera-Fc protein (Fc fusion)
chain: GRGEAETRECIYYNANWELERTNQSGLERCYGDKDKRLHCYASWRNSSGTIELVKKGCWLDDFNCYDRQECVATEENPQVYFCCCEGNFCNERFTHLPEAGGPEVTYEPPPTAPT
notes: Tested as chimera-Fc protein; not shown: linker (if any) and Fc domain
Consider B1, for which the entries for the “IC50, SBE-luciferase reporter in HEK293 cells” value (“IC50, SBE-luciferase reporter” for short) in the test with GDF-11 [1], in the test with Activin B [2] and with Activin A [3] were 0.15 µg/mL, 0.075 µg/mL and 0.056 µg/mL, respectively. In addition, in the test with BMP-9 [4], the “IC50, BRE-luciferase reporter in C2C12 cells” value (shortened to “IC50, BRE-luciferase reporter”) was 0.1 µg/mL. The dissociation constant Kd (commonly the concentration at which binding is half-saturated) in test [5] is less than 0.001 nM; in the test with GDF-11 [6], less than 0.001 nM; with Activin B [7], less than 0.001 nM; with Activin A [8] it was 0.0165 nM; with BMP-10, 0.0159 nM; with BMP-9 [9], 0.0123 nM.

B2: ActRIIB-A5 (SEQ ID NO: 123) chimera-Fc protein (Fc fusion)
chain: GRGEAETRECIYYNANWELERTNQSGLERCEGEQDKRLHCYASWRNSSGTIELVKKGCWLDDINCYDRTDCVATEENPQVYFCCCEGNFCNERFTHLPEAGGPEVTYEPPPTAPT
notes: as for B1
Consider B2, for which the “IC50, SBE-luciferase reporter” value with GDF-11 [1] is 0.13 µg/mL; in the test with Activin B [2] it was 0.072 µg/mL; with Activin A [3], 0.057 µg/mL. Moreover, in the test with BMP-9 [4], the “IC50, BRE-luciferase reporter” value amounted to 0.4 µg/mL. Further, the dissociation constant Kd in test [5] is 0.0165 nM; in the test with GDF-11 [6], 0.00566 nM; in the test with Activin B [7], 0.00491 nM; with Activin A [8], 0.0228 nM; with BMP-10, 0.0152 nM; in the test with BMP-9 [9], 0.143 nM.

B3: ActRIIB-B1B7 (SEQ ID NO: 116) chimera-Fc protein (Fc fusion)
chain: GRGEAETRECLFFNANWELERTNQSGLERCEGEQDKRLHCYASWRNSSGTIELVKKGCWLDDFNCYDRQECVATEENPQVYFCCCEGNFCNEKFSYFPEAGGPEVTYEPPPTAPT
notes: as for B1
Regarding B3, the “IC50, SBE-luciferase reporter” value in the test with GDF-11 [1] came to 0.14 µg/mL; with Activin B [2], 0.18 µg/mL; with Activin A [3] it was 0.094 µg/mL. Besides, the “IC50, BRE-luciferase reporter” value with BMP-9 [4] worked out at 0.067 µg/mL. The Kd in test [5] is 0.00353 nM; in the test with GDF-11 [6], less than 0.001 nM; with Activin B [7], less than 0.001 nM; in the test with Activin A [8] it was less than 0.001 nM; with BMP-10 it was 0.0156 nM; in the test with BMP-9 [9] it was 18.6 nM.

B4: ActRIIB-A6 (SEQ ID NO: 124) chimera-Fc protein (Fc fusion)
chain: GRGEAETRECIYYNANWELERTNQSGLERCEGEQDKRLHCYASWRNSSGTIELVKKGCWLDDFNCYDRQECVATKDSPEVYFCCCEGNFCNERFTHLPEAGGPEVTYEPPPTAPT
notes: as for B1
For B4, the “IC50, SBE-luciferase reporter” value with GDF-11 [1] amounted to 0.25 µg/mL; with Activin B [2] it was 0.14 µg/mL; in the test with Activin A [3], 0.089 µg/mL. For the same molecule, the “IC50, BRE-luciferase reporter” value with BMP-9 [4] amounted to 0.23 µg/mL. Besides, the Kd in test [5] was 0.0288 nM; with GDF-11 [6], less than 0.001 nM; with Activin B [7], 0.001 nM; in the test with Activin A [8], 0.0104 nM; with BMP-10 it was 0.00969 nM; with BMP-9 [9] it was 0.00962 nM.

B5: ActRIIB-B2 (SEQ ID NO: 111) chimera-Fc protein (Fc fusion)
chain: GRGEAETRECIYYNANWELERTNQTGVEPCEGEQDKRLHCYASWRNSSGTIELVKKGCWLDDFNCYDRQECVATEENPQVYFCCCEGNFCNERFTHLPEAGGPEVTYEPPPTAPT
notes: as for B1
For the molecule B5, the “IC50, SBE-luciferase reporter” value with GDF-11 [1] amounted to 0.27 µg/mL; with Activin B [2], 0.17 µg/mL; with Activin A [3], 0.14 µg/mL. For the same molecule, the “IC50, BRE-luciferase reporter” value with BMP-9 [4] was 0.3 µg/mL. In addition, the Kd in [5] is less than 0.001 nM; with GDF-11 [6] it was less than 0.001 nM; with Activin B [7], 0.0116 nM; with Activin A [8], less than 0.001 nM; in the test with BMP-10, 0.0205 nM; in the test with BMP-9 [9], 0.00327 nM.

B6: ActRIIB-A1 (SEQ ID NO: 120) chimera-Fc protein (Fc fusion, not shown: a dimerising Fc or GST)
chain: GAILGRSETQECIYYNANWELERTNQSGLERCEGEQDKRLHCYASWRNSSGTIELVKKGCWLDDFNCYDRQECVATEENPQVYFCCCEGNFCNERFTHLPEAGGPEVTYEPPPTAPT
On to B6, for which the “IC50, SBE-luciferase reporter” value with GDF-11 [1] was 0.14 µg/mL; in the test with Activin B [2] it was 0.072 µg/mL; with Activin A [3], 0.075 µg/mL. Also, in the test with BMP-9 [4], the “IC50, BRE-luciferase reporter” value amounted to 0.14 µg/mL.
